6 molecules from patent publication US20230111363A1 (LMMUNOMETABOLISM DEVELOPMENT, published 2023) can be followed below.

The target in assay [1] is T1, human monocarboxylate transporter 1 (MCT1) (human, UniProt P53985 1-500).
T1 sequence: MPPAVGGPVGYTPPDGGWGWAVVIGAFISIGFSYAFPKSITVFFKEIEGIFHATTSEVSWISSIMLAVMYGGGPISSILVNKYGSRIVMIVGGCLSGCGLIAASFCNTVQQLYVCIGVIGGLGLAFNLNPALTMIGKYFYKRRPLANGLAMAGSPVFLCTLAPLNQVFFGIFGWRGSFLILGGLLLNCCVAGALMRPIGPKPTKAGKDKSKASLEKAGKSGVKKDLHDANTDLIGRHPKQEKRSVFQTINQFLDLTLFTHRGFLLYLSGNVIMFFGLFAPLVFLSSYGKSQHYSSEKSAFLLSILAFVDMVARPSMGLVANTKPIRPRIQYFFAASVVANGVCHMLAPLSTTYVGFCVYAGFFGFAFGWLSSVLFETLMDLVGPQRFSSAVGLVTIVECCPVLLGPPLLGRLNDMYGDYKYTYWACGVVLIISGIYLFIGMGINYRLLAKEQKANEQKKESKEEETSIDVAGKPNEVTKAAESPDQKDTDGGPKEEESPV
In words: cell-based or functional assay.

For assay [2], the target named is T1, human monocarboxylate transporter 1 …. The experiment in a line: cell-based or functional assay. This is another data set of the same source.
The target is the same in assay [3]. The experiment in a line: competition MSD binding assay, antibody titrated with HEK WT cells expressing MCT1, apparent KD, screening at 25 C. The protocol:
The mix was incubated at 37° C. for 1-2 days. After incubation, the incubated samples were spun down for 5 min at 500×g to remove cells. A 96-well multi-array plate (Meso Scale Diagnostics, Cat. #L15XA-3) was coated at 4° C. overnight with 1 μg/mL of goat anti human FC in phosphate buffered saline (PBS). Following coating, plates were washed 3 times with 150 μL PBST (PBS with 0.05% Tween 20) and blocked with 150 μL/well of PBS 3% blocker A buffer (Cat #R93BA-1) at 25° C. for 1 hr. Plates were then washed 3 times with PBST. 50 μL of the preincubated antibody: cell dilution series was transferred to the wells and incubated at 25° C. with 700 rpm shaking for 1 hr. Plates were washed 3 times with PBST. Then 100 μL of 1 μg/mL anti-human kappa-biotin antibody (Cat. #2060-08) was added, and plates were incubated at 25° C. with 700 rpm shaking […]. Plates were washed 3 times with PBST, followed by addition of 100 μL of 1 μg/mL MSD Sulfo-tag streptavidin antibody (Meso Scale Diagnostics Cat. #R32 AD1), and plates were incubated at 25° C. with 700 rpm shaking for 1 hr. Plates were washed 3 times with PBST, 150 μL/well of 1× Read Buffer T was added to the wells and analyzed on a SECTOR® Imager 6000 (Meso Scale Diagnostics) 15 min after buffer addition. The apparent KD is determined by fitting a sigmoidal curve to the electrochemiluminescence (ECL) response vs. log (MCT1 receptor concentration) using assay development tool kit graphed with normalized ECL values.

B1: anti-human MCT1 antibody Ab13 (antibody, human IgG1, kappa, V domains shown)
VH: QVQLVQSGAEVKKPGASVKVSCTVSGRSLTNYHLQWVRQAPGQGLEWMGFIRSSGNTEYNSEFKSRVTMTRDTSTSTVYMELSSLRSEDTAVYYCARNRWRHGTYYSPGYYVMDAWGQGTLVTVSS
VL: EIVLTQSPGTLSLSPGERATLSCKGSQNIENYLAWYQQKPGQAPRLLIYNRHNLQTGIPDRFSGSGSGTDFTLTISRLEPEDFAVYYCYQYSDGYTFGGGTKVEIKR
notes: IgG1EN backbone
For the molecule B1, the “IC50 of inhibition of MCT1 mediated transport (bromopyruvate assay, HEK293T cells)” value in assay [1] came to 42 nM. In assay [2], the “IC50 of inhibition of CD4 T cell proliferation” value is 3 nM and the “IC50 of inhibition of CD8 T cell proliferation” value was 4 nM. In assay [3], the Kd is 2.82 nM.

B2: anti-human MCT1 antibody Ab18 (antibody, human IgG1, kappa, V domains shown)
VH: QVQLVQSGAEVKKPGASVKVSCTVSGRSLTNYHLGWVRQAPGQGLEWMGFIRSSGNTEYNSEFKSRVTMTRDTSTSTVYMELSSLRSEDTAVYYCARNRWYHGTYYSPGYYVMDAWGQGTLVTVSS
VL: EIVLTQSPGTLSLSPGERATLSCKGSQNIENYLAWYQQKPGQAPRLLIYNRHNLQTGIPDRFSGSGSGTDFTLTISRLEPEDFAVYYCYQYSDGYTFGGGTKVEIKR
notes: IgG1EN backbone
In the case of B2, the “IC50 of inhibition of MCT1 mediated transport (bromopyruvate assay, HEK293T cells)” value in assay [1] was 41 nM. Also, in assay [2], the “IC50 of inhibition of CD4 T cell proliferation” value turned out to be 6 nM and the “IC50 of inhibition of CD8 T cell proliferation” value was 2 nM. For the same molecule, in assay [3], the Kd came out at 5.14 nM.

B3: anti-human MCT1 antibody Ab14 (antibody, human IgG1, kappa, V domains shown)
VH: QVQLVQSGAEVKKPGASVKVSCTVSGRSLTNYHLQWVRQAPGQGLEWMGFIRSSGNTEYNSEFKSRVTMTRDTSTSTVYMELSSLRSEDTAVYYCARNRWYHGTYYSPGYYVMDPWGQGTLVTVSS
VL: EIVLTQSPGTLSLSPGERATLSCKGSQNIENYLAWYQQKPGQAPRLLIYNRHNLQTGIPDRFSGSGSGTDFTLTISRLEPEDFAVYYCYQYSDGYTFGGGTKVEIKR
notes: IgG1EN backbone
Regarding B3, the “IC50 of inhibition of MCT1 mediated transport (bromopyruvate assay, HEK293T cells)” value in assay [1] was found to be 40 nM. In assay [2], the “IC50 of inhibition of CD4 T cell proliferation” value came out at 5 nM and the “IC50 of inhibition of CD8 T cell proliferation” value came to 6 nM. Also, the Kd in assay [3] was found to be 1.31 nM.

B4: anti-human MCT1 antibody Ab15 (antibody, human IgG1, kappa, V domains shown)
VH: QVQLVQSGAEVKKPGASVKVSCTVSGRSLTNYHLQWVRQAPGQGLEWMGFIRSSGNTEYNSEFKSRVTMTRDTSTSTVYMELSSLRSEDTAVYYCARNLWYHGTYYSPGYYVMDAWGQGTLVTVSS
VL: EIVLTQSPGTLSLSPGERATLSCKGSQNIENYLAWYQQKPGQAPRLLIYNRHNLQTGIPDRFSGSGSGTDFTLTISRLEPEDFAVYYCYQYSDGYTFGGGTKVEIKR
notes: IgG1EN backbone
On to B4, for which the “IC50 of inhibition of MCT1 mediated transport (bromopyruvate assay, HEK293T cells)” value in assay [1] was 48 nM. For the same molecule, in assay [2], the “IC50 of inhibition of CD4 T cell proliferation” value stood at 5 nM and the “IC50 of inhibition of CD8 T cell proliferation” value came to 8 nM. In assay [3], the Kd worked out at 1.96 nM.

B5: anti-human MCT1 antibody Ab16 (antibody, human IgG1, kappa, V domains shown)
VH: QVQLVQSGAEVKKPGASVKVSCTRSGRSLTNYHLQWVRQAPGQGLEWMGFIRSSGNTEYNSEFKSRVTMTRDTSTSTVYMELSSLRSEDTAVYYCARNRWYHGTYYSPGYYVMDAWGQGTLVTVSS
VL: EIVLTQSPGTLSLSPGERATLSCKGSQNIENYLAWYQQKPGQAPRLLIYNRHNLQTGIPDRFSGSGSGTDFTLTISRLEPEDFAVYYCYQYSDGYTFGGGTKVEIKR
notes: IgG1EN backbone
In the case of B5, the “IC50 of inhibition of MCT1 mediated transport (bromopyruvate assay, HEK293T cells)” value in assay [1] was 31 nM. In assay [2], the “IC50 of inhibition of CD4 T cell proliferation” value stood at 5 nM and the “IC50 of inhibition of CD8 T cell proliferation” value is 3 nM. Further, the Kd in assay [3] was 0.71 nM.

B6: anti-human MCT1 antibody Ab17 (antibody, human IgG1, kappa, V domains shown)
VH: QVQLVQSGAEVKKPGASVKVSCTVSGRSLTNIHLQWVRQAPGQGLEWMGFIRSSGNTEYNSEFKSRVTMTRDTSTSTVYMELSSLRSEDTAVYYCARNRWYHGTYYSPGYYVMDAWGQGTLVTVSS
VL: EIVLTQSPGTLSLSPGERATLSCKGSQNIENYLAWYQQKPGQAPRLLIYNRHNLQTGIPDRFSGSGSGTDFTLTISRLEPEDFAVYYCYQYSDGYTFGGGTKVEIKR
notes: IgG1EN backbone
On to B6, for which, in assay [1], the “IC50 of inhibition of MCT1 mediated transport (bromopyruvate assay, HEK293T cells)” value was found to be 38 nM. For the same molecule, in assay [2], the “IC50 of inhibition of CD4 T cell proliferation” value was 5 nM and the “IC50 of inhibition of CD8 T cell proliferation” value came to 2 nM. Also, the Kd in assay [3] turned out to be 1.04 nM.
